We go through eight molecules from US20170008959A1 (AbbVie / Abbott, published 2017).

T1: AP-Nogo66 (Nogo-66 with an N-terminal alkaline phosphatase tag) (human, UniProt Q9NQC3 1055-1120)
T1 construct: range 1055-1120; Migrates as a dimer of about 140 kDa in gel chromatography; the AP tag induces the dimerization; also called NgR ligand AP-Nogo-66; not shown: alkaline phosphatase tag encoded by vector pAP-tag5
T1 sequence (looked up): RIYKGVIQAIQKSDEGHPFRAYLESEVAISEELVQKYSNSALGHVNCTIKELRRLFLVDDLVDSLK

B1: AlterCharge1 (peptide)
peptide: FSRIRATHWRVDG
modifications: also: biotinylated, position not given here
notes: Control 13mer with four positive charges
B2: His-NogoR fusion protein (receptor, human, UniProt Q9BZR6 27-447, looked up)
chain: CPGACVCYNEPKVTTSCPQQGLQAVPVGIPAASQRIFLHGNRISHVPAASFRACRNLTILWLHSNVLARIDAAAFTGLALLEQLDLSDNAQLRSVDPATFHGLGRLHTLHLDRCGLQELGPGLFRGLAALQYLYLQDNALQALPDDTFRDLGNLTHLFLHGNRISSVPERAFRGLHSLDRLLLHQNRVAHVHPHAFRDLGRLMTLYLFANNLSALPTEALAPLRALQYLRLNDNPWVCDCRARPLWAWLQKFRGSSSEVPCSLPQRLAGRDLKRLAANDLQGCAVATGPYHPIWTGRATDEEPLGLPKCCQPDAADKASVLEPGRPASAGNALKGRVPPGDSPPGNGSGPRHINDSPFGTLPGSAEPPLTAVRPEGSEPPGFPTSGPRRRPGCSRKNRTRSHCRLGQAGSGGGGTGDSEGS
notes: Low-glycosylated fraction of about 80 kDa from CHO-K1 cells; also called soluble His-NogoR; NgR-HIS; not shown: Myc/His tag of vector pcDNA4/MycHIS A
B3: sRAGE 1-331 (recombinant human sRAGE protein) (receptor)
chain: AQNITARIGEPLVLKCKGAPKKPPQRLEWKLNTGRTEAWKVLSPQGGGPWDSVARVLPNGSLFLPAVGIQDEGIFRCQAMNRNGKETKSNYRVRVYQIPGKPEIVDSASELTAGVPNKVGTCVSEGSYPAGTLSWHLDGKPLVPNEKGVSVKEQTRRHPETGLFTLQSELMVTPARGGDPRPTFSCSFSPGLPRHRALRTAPIQPRVWEPVPLEEVQLVVEPEGGAVAPGGTVTLTCEVPAQPSPQIHWMKDGVPLPLPPSPVLILPEIGPQDQGTYSCVATHSSHGPQESRAVSISIIEPGEEGPTAGGTKLGPEQKLISEEDLNSAVDHHHHHH
notes: His-tagged, from HEK 293 line 293/6.1 sRAGE His 6 (vector pcDNA3.1(-) Myc HIS); also called sRAGE-HIS
B4: N-terminally truncated sRAGE (sRAGE 102-331) (receptor)
chain: MNRNGKETKSNYRVRVYQIPGKPEIVDSASELTAGVPNKVGTCVSEGSYPAGTLSWHLDGKPLVPNEKGVSVKEQTRRHPETGLFTLQSELMVTPARGGDPRPTFSCSFSPGLPRHRALRTAPIQPRVWEPVPLEEVQLVVEPEGGAVAPGGTVTLTCEVPAQPSPQIHWMKDGVPLPLPPSPVLILPEIGPQDQGTYSCVATHSSHGPQESRAVSISIIEPGEEGPTAGARGGPEQKLISEEDLNSAVDHHHHHH
notes: His-tagged, expressed from psecTAG 2A; no longer has a functional V domain

No end group written: not given here.

Assay [1] concerns the target T2, Amyloid Aβ-1-42 oligomer (globulomer), biotinylated (UniProt P05067 672-713, biotinylated (1/5 biotin; position not stated)).
T2 construct: domain: Aβ 1-42; Concentrations are based on Aβ 1-42 monomers; also called Aβ oligomer; Aβ 1-42 oligomers
Briefly: HTRF competition: peptide preincubated with Aβ 1/5 biotin globulomer 800 nM, then sRAGE 1-331 added; blocked partner sRAGE. (In general: Time-resolved FRET reads energy transfer from a long-lived donor to a nearby acceptor.)

In assay [2] the target is T3, sRAGE-6×HIS (AA 23-352, NP_001127) (human, UniProt Q15109 23-331).
T3 construct: range 23-352; Printed as a fusion protein with limits 23-352 on NP_001127; also called human sRAGE-6×HIS; RAGE receptor; not shown: 6×HIS tag
The experiment in a line: AlphaScreen, biotinylated peptide on streptavidin donor beads, sRAGE-6×HIS 2.5 ng/µl on anti-HIS acceptor beads. Here is the method:
The assay was carried out by the manufacturer's protocol in 25 mM HEPES, 100 mM NaCl of pH 7.4 and 0.1% BSA in a volume of 20 μl.
The individual components were brought together in a defined time sequence. […] The various amounts of peptide were then added in order, after a further 30 minutes, to add the donor beads. After a further 60 minutes, the fluorescence was measured in the AlphaQuest instrument from Perkin-Elmer with a time lag of one second. Each measured point was determined as triplicate. The evaluation and graphical workup of the results took place with the GraphPrism 4.0 software package.

Assay [3] addresses T3, sRAGE-6×HIS (AA 23-352, NP_001127). Briefly: AlphaScreen, biotinylated peptide and sRAGE-6×HIS. Here is the method:
The entire homogeneous assay was carried out in 25 mM HEPES, 100 mM NaCl of pH 7.4 and 0.1% BSA in a volume of 20 μl.
The individual components were brought together in a defined time sequence. […] The various amounts of peptide were then added in order, after a further 30 minutes, to add the donor beads. After a further 60 minutes, the fluorescence was measured in the AlphaQuest instrument from Perkin-Elmer with a time lag of one second. Each measured point was determined as triplicate. The analysis and graphical workup of the results took place with the GraphPrism 4.0 software package.
Background: In Alpha technology, singlet oxygen from a donor bead excites a nearby acceptor bead.

In assay [4] the target is T1, AP-Nogo66 (Nogo-66 with an N-terminal …). Briefly: competition of AP-Nogo66 (0.1 nM) binding to coated His-NogoR. Here is the method: (§1) This was followed by a blocking step for 1 hour with 2% strength bovine serum albumin (BSA) in Tris-HCl, pH 7.2, at room temperature. […] These stock solutions were then diluted three-fold.
(§2) After each incubation step, the plates were washed with washing buffer (10 mM Tris-HCl, pH 7.2 and 0.05% Tween20).

Assay [5] has as its target T2, Amyloid Aβ-1-42 oligomer (globulomer), …. Briefly: HTRF direct binding: Aβ 1/5 biotin globulomer titrated on His-tagged sRAGE; anti-6HIS cryptate and streptavidin XL-665.
Experimental: After addition of 4 μl of a 2M KF stock solution, the complete mixture was measured in the BMG Pherastar fluorescence measuring instrument (BMG Labtech GmbH, Offenburg, Germany) in HTRF mode. For the background curve, measurements were used with in each case only the Anti6HIS cryptates and streptavidin XL solutions. The calculated % DeltaF values were transferred into GraphPad Prism 4 (GraphPad Software, San Diego, USA) and evaluated.
Assay [6] has as its target B2. The experiment in a line: competition of AP-Nogo66 (0.1 nM) binding to coated His-NogoR. As for the experimental part:
as §1, §2

With LPRHRALRTAPIQPRVWEPVPLEEVQLVVE (Synthetic 30mer) [AGER-CDP peptide 7], the “IC50 (read off the curve)” value in assay [1] was roughly 4000 nM.
As for B1, the “EC50 (read off the curve)” value in assay [2] is roughly 50 nM.
For the molecule CKGAPKKPPQRLE (also: biotinylated, position not given here (AlphaScreen assays only), also called Nterm 13) [NtermR13], the EC50 in assay [3] is 66 nM.
In the case of TLQSELMVTPARGGDPRPTFSCSFSPGLPR (Synthetic 30mer) [AGER-CDP peptide 6], in assay [1], the binding result was “binds”.
The molecule B2 gave an IC50 in assay [4] of 2 nM.
On to B3, for which, in assay [5], the binding result was “binds”.
For the molecule QNITARIGEPLVLKCKGAPKKPPQRLEWKLN (also: biotin label in some assays, position not given here, also called Nterm 31; Nterm31) [NtermR31], the IC50 in assay [6] turned out to be 50 nM.
For B4, the binding result in assay [5] is given as “binds”.

As a reminder, the EC50 (read off the curve) is the concentration that produces a half-maximal response. The low end stands for greater potency, the high end for weaker potency. One may read the EC50 as the concentration giving half of the maximal effect. One may read the IC50 as the concentration that gives 50% inhibition. Read a low IC50 as higher potency.
